Measured values published in paper PMC2040504.

Biological target: CXCR4 (human (endogenous in CEM)) (UniProt P61073)
Experiment: radioligand binding; competition: 0.25 nM 125I-CXCL12α and a range of concentrations of unlabelled CXCL12 (α, γ or γ-m1) on CEM cells (10^7 cells/ml), 100 µl PBS, 1 h, 4°C; cell-associated radioactivity counted

UniProt P61073, sequence (P61073 whole entry): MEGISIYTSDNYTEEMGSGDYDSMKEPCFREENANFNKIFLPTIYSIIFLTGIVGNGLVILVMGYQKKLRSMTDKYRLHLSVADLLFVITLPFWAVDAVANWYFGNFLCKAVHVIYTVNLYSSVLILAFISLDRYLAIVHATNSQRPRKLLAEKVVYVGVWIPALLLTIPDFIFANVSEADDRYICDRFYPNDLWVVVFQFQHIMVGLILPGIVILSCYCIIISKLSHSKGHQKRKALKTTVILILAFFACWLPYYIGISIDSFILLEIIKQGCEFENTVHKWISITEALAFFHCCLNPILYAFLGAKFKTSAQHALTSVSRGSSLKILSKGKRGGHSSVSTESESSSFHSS

CXCL12γ (ligand)
IC50: 350 nM
